In this assay the target is HLA-A1 (A*0101) (human). Description: cell competition vs YLEPAC(FI)AKY, stripped CAA B-LCL, FACS.

For orientation: IC50 means the concentration that inhibits the measured activity by half. In the case of ITDDQLLAL (modifications not checked) [PRAME peptide …], the IC50 is 1000 nM.

These data come from US20160333065A1.
